Source: patent US7410949 (Hoffmann-La Roche, dated 2008)
*1 amine or outer side, *2 acyl side, *3 side chain or, on linkers, in order; H or OH if unused. Bridges are numbered along the chain shown (N, C = ends). [ ]: non-standard residue; d: D form. Pqa = N-piperazin-1-yl-4(3H)-quinazolinone-3-acetic acid, O=C(Cn1cnc2ccc(N3CCN([*:1])CC3)cc2c1=O)[*:2]; Phe(3,4,5-F3) = N[C@@H](Cc1cc(F)c(F)c(F)c1)C(=O)O; 4Pal = N[C@@H](Cc1ccncc1)C(=O)O; Tic = O=C(O)[C@@H]1Cc2ccccc2CN1; 4‑MeOApc = not defined here; Nle = CCCC[C@H](N)C(=O)O

Experiments:
Y1R = test: cell-based or functional assay
Sequence of Y1R (P25929 whole entry): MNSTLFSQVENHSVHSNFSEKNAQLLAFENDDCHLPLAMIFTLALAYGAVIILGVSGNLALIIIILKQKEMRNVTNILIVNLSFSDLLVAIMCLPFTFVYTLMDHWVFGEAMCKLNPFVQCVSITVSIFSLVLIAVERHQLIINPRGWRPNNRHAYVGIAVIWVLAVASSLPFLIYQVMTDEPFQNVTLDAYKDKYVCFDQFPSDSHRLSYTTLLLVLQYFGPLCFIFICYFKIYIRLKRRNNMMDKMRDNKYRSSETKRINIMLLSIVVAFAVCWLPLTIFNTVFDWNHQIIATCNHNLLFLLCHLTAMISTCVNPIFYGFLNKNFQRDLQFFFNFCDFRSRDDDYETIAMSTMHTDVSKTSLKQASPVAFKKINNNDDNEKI

Y4R = test: cell-based or functional assay

Binder	Y1R EC50(nM) FLIPR (Y1R)	Y4R EC50(nM) FLIPR (Y4R)
H-IK[Pqa]RAYLNLVTRQRY-NH2 (SMILES CC[C@H](C)[C@H](N)C(=O)N[C@@H](CCCCN)C(=O)N1CCN(c2ccc3ncn(CC(=O)N[C@@H](CCCNC(=N)N)C(=O)N[C@@H](C)C(=O)N[C@@H](Cc4ccc(O)cc4)C(=O)N[C@@H](CC(C)C)C(=O)N[C@@H](CC(N)=O)C(=O)N[C@@H](CC(C)C)C(=O)N[C@H](C(=O)N[C@H](C(=O)N[C@@H](CCCNC(=N)N)C(=O)N[C@@H](CCC(N)=O)C(=O)N[C@@H](CCCNC(=N)N)C(=O)N[C@@H](Cc4ccc(O)cc4)C(N)=O)[C@@H](C)O)C(C)C)c(=O)c3c2)CC1) [H-Ile-Lys-Pqa-Arg-Ala-Tyr-Leu-Asn-Leu-Val-Thr-Arg-Gln-Arg-Tyr-NH2]	> 5000 nM	> 5000 nM
Ac-I[Nle][Pqa]RHYKNLVDRQRY-NH2 (lactam 7-11) [Cyclo Lys28-Asp32 Ac-Ile-Nle-Pqa-Arg-His-Tyr-Lys-Asn-Leu-Val-Asp-Arg-Gln-Arg-Tyr-NH2]	> 5000 nM	> 5000 nM
Ac-I[Nle][Pqa]R[4‑MeOApc]YLNLVTRQRY-NH2 (reading uncertain) [Ac-Ile-Nle-Pqa-Arg-(4-MeOApc)-Tyr-Leu-Asn-Leu-Val-Thr-Arg-Gln-Arg-Tyr-NH2]	> 5000 nM	> 5000 nM
IKRHYLNAVTRQRY (Pqa moiety between the two parts; C-terminal amide) [H-Ile-Lys-Pqa-Arg-His-Tyr-Leu-Asn-Ala-Val-Thr-Arg-Gln-Arg-Tyr-NH2]	> 5000 nM	> 5000 nM
IKRHYLNLVTRQRY (N-methyl Val at PYY position 31 (residue 7 of the second part); Pqa moiety between the two parts; C-terminal amide) [H-Ile-Lys-Pqa-Arg-His-Tyr-Leu-Asn-Leu-(NMe)Val-Thr-Arg-Gln-Arg-Tyr-NH2]	> 5000 nM	> 5000 nM
IARHYLNLVTRQRY (N-terminal acetyl; Pqa moiety between the two parts; C-terminal amide) [Ac-Ile-Ala-Pqa-Arg-His-Tyr-Leu-Asn-Leu-Val-Thr-Arg-Gln-Arg-Tyr-NH2]	> 5000 nM	3020 nM
IARHYLNLVTRQRY (Pqa moiety between the two parts; C-terminal amide) [H-Ile-Ala-Pqa-Arg-His-Tyr-Leu-Asn-Leu-Val-Thr-Arg-Gln-Arg-Tyr-NH2]	1000 nM	> 5000 nM
Ac-I[Nle][Pqa]R[4Pal]YLNLVTRQRY-NH2 (SMILES CCCC[C@H](NC(=O)[C@@H](NC(C)=O)[C@@H](C)CC)C(=O)N1CCN(c2ccc3ncn(CC(=O)N[C@@H](CCCNC(=N)N)C(=O)N[C@@H](Cc4ccncc4)C(=O)N[C@@H](Cc4ccc(O)cc4)C(=O)N[C@@H](CC(C)C)C(=O)N[C@@H](CC(N)=O)C(=O)N[C@@H](CC(C)C)C(=O)N[C@H](C(=O)N[C@H](C(=O)N[C@@H](CCCNC(=N)N)C(=O)N[C@@H](CCC(N)=O)C(=O)N[C@@H](CCCNC(=N)N)C(=O)N[C@@H](Cc4ccc(O)cc4)C(N)=O)[C@@H](C)O)C(C)C)c(=O)c3c2)CC1) [Ac-Ile-Nle-Pqa-Arg-(4-Pal)-Tyr-Leu-Asn-Leu-Val-Thr-Arg-Gln-Arg-Tyr-NH2]	> 5000 nM	> 5000 nM
Ac-I[Nle][Pqa][Phe(3,4,5-F3)]HYLNLVTRQRY-NH2 (SMILES CCCC[C@H](NC(=O)[C@@H](NC(C)=O)[C@@H](C)CC)C(=O)N1CCN(c2ccc3ncn(CC(=O)N[C@@H](Cc4cc(F)c(F)c(F)c4)C(=O)N[C@@H](Cc4c[nH]cn4)C(=O)N[C@@H](Cc4ccc(O)cc4)C(=O)N[C@@H](CC(C)C)C(=O)N[C@@H](CC(N)=O)C(=O)N[C@@H](CC(C)C)C(=O)N[C@H](C(=O)N[C@H](C(=O)N[C@@H](CCCNC(=N)N)C(=O)N[C@@H](CCC(N)=O)C(=O)N[C@@H](CCCNC(=N)N)C(=O)N[C@@H](Cc4ccc(O)cc4)C(N)=O)[C@@H](C)O)C(C)C)c(=O)c3c2)CC1) [Ac-Ile-Nle-Pqa-(3,4,5 Trifluoro Phe)-His-Tyr-Leu-Asn-Leu-Val-Thr-Arg-Gln-Arg-Tyr-NH2]	> 5000 nM	> 5000 nM
Ac-I[Nle][Pqa]RH[Tic]LNLVTRQRY-NH2 (SMILES CCCC[C@H](NC(=O)[C@@H](NC(C)=O)[C@@H](C)CC)C(=O)N1CCN(c2ccc3ncn(CC(=O)N[C@@H](CCCNC(=N)N)C(=O)N[C@@H](Cc4c[nH]cn4)C(=O)N4Cc5ccccc5C[C@H]4C(=O)N[C@@H](CC(C)C)C(=O)N[C@@H](CC(N)=O)C(=O)N[C@@H](CC(C)C)C(=O)N[C@H](C(=O)N[C@H](C(=O)N[C@@H](CCCNC(=N)N)C(=O)N[C@@H](CCC(N)=O)C(=O)N[C@@H](CCCNC(=N)N)C(=O)N[C@@H](Cc4ccc(O)cc4)C(N)=O)[C@@H](C)O)C(C)C)c(=O)c3c2)CC1) [Ac-Ile-Nle-Pqa-Arg-His-Tic-Leu-Asn-Leu-Val-Thr-Arg-Gln-Arg-Tyr-NH2]	> 5000 nM	> 5000 nM
IKRHYLNLVTRQRY ((D)Ile at PYY position 3 (residue 1 of the first part); Pqa moiety between the two parts; C-terminal amide) [H-(D) Ile-Lys-Pqa-Arg-His-Tyr-Leu-Asn-Leu-Val-Thr-Arg-Gln-Arg-Tyr-NH2]	> 5000 nM	> 5000 nM
AKRHYLNLVTRQRY (Pqa moiety between the two parts; C-terminal amide) [H-Ala-Lys-Pqa-Arg-His-Tyr-Leu-Asn-Leu-Val-Thr-Arg-Gln-Arg-Tyr-NH2]	> 5000 nM	> 5000 nM
H-IK[Pqa]RHYLALVTRQRY-NH2 (SMILES CC[C@H](C)[C@H](N)C(=O)N[C@@H](CCCCN)C(=O)N1CCN(c2ccc3ncn(CC(=O)N[C@@H](CCCNC(=N)N)C(=O)N[C@@H](Cc4c[nH]cn4)C(=O)N[C@@H](Cc4ccc(O)cc4)C(=O)N[C@@H](CC(C)C)C(=O)N[C@@H](C)C(=O)N[C@@H](CC(C)C)C(=O)N[C@H](C(=O)N[C@H](C(=O)N[C@@H](CCCNC(=N)N)C(=O)N[C@@H](CCC(N)=O)C(=O)N[C@@H](CCCNC(=N)N)C(=O)N[C@@H](Cc4ccc(O)cc4)C(N)=O)[C@@H](C)O)C(C)C)c(=O)c3c2)CC1) [H-Ile-Lys-Pqa-Arg-His-Tyr-Leu-Ala-Leu-Val-Thr-Arg-Gln-Arg-Tyr-NH2]	> 5000 nM	> 5000 nM
